# Results taken from patent US10358672B2, “7-β-hydroxysteroid dehydrogenase mutants and process for the preparation of ursodeoxycholic acid” (Pharmazell GmbH, priority 2014, dated 2019).
# Columns and labels:
# [1] = molecular target: 7β-HSDH obtainable from Collinsella aerofaciens DSM 3979 (Collinsella aerofaciens, UniProt A4ECA9); conditions: cited from earlier work
# [2] = test system: Collinsella aerofaciens DSM 3979 (ATCC 25986) 7β-HSDH, wild type, SEQ ID NO:2; conditions: cited from earlier work
# [3] = Photometric activity determination of 7β-HSDH and mutants (decrease in absorbance at 340 nm, DHCA reduction with NADPH); assay type: biochemical
# Method: The activity of the 7β-HSDH and of the mutants was determined using a photometric assay, where the decrease in absorbance was measured at 340 nm over a period of 30 seconds.
# The expression [R64E] in the first column of the table means that the arginine (R) in position 64 of the protein sequence had been replaced by glutamic acid (E) in the mutant in question. The respective amino acid is abbreviated using the international one-letter code. Analogously, [R64D] means that an aspartic acid has been introduced at this position.
# [4] = Cofactor specificity of 7β-HSDH types (compilation of improvements); assay type: biochemical
# [5] = substrate: C[C@H](CCC(=O)O)[C@H]1CC[C@H]2[C@@H]3C(=O)C[C@@H]4CC(=O)CC[C@]4(C)[C@H]3CC(=O)[C@]12C; test: cells, lysate or membranes named; conditions: other: purified enzyme, 340 nm, 50 mM KPi pH 8.0, substrate DHCA / cofactor NADPH
# [6] = substrate: NC(=O)C1=CN([C@@H]2O[C@H](COP(=O)(O)OP(=O)(O)OC[C@H]3O[C@@H](n4cnc5c(N)ncnc54)[C@H](OP(=O)(O)O)[C@@H]3O)[C@@H](O)[C@H]2O)C=CC1; test: cells, lysate or membranes named; conditions: other: purified enzyme, 340 nm, 50 mM KPi pH 8.0, substrate DHCA / cofactor NADPH
# [7] = substrate: C[C@H](CCC(=O)O)[C@H]1CC[C@H]2[C@@H]3C(=O)C[C@@H]4CC(=O)CC[C@]4(C)[C@H]3CC(=O)[C@]12C; test: purified protein, by the assay type; conditions: other: purified enzyme, 340 nm, 50 mM KPi pH 8.0, substrate DHCA / cofactor NADPH
# [8] = substrate: NC(=O)C1=CN([C@@H]2O[C@H](COP(=O)(O)OP(=O)(O)OC[C@H]3O[C@@H](n4cnc5c(N)ncnc54)[C@H](OP(=O)(O)O)[C@@H]3O)[C@@H](O)[C@H]2O)C=CC1; test: purified protein, by the assay type; conditions: other: purified enzyme, 340 nm, 50 mM KPi pH 8.0, substrate DHCA / cofactor NADPH
# [9] = Table 4, variants modified at position 64, 10 mM DHCA, NADPH, KPi pH 8.0
# [10] = Table 9, variants modified at position 17
# [11] = Table 10, dual mutant versus wild type
molecule,measurement,setting,value
NC(=O)c1ccc[n+]([C@@H]2O[C@H](COP(=O)([O-])OP(=O)(O)OC[C@H]3O[C@@H](n4cnc5c(N)ncnc54)[C@H](OP(=O)(O)O)[C@@H]3O)[C@@H](O)[C@H]2O)c1 [NADP^+],Vmax,[1],30.58 U/mg Protein
same,kcat,[1],944.95
same,kcat,[2],944.95
"C[C@H](CCC(=O)O)[C@H]1CC[C@H]2[C@@H]3C(=O)C[C@@H]4C[C@H](O)CC[C@]4(C)[C@H]3CC[C@]12C [Mutant 7-Keto-LCA, 7-keto-lithocholic acid]",Vmax,[1],30.77 U/mg Protein
same,kcat,[1],950.77
NC(=O)C1=CN([C@@H]2O[C@H](COP(=O)(O)OP(=O)(O)OC[C@H]3O[C@@H](n4cnc5c(N)ncnc54)[C@H](OP(=O)(O)O)[C@@H]3O)[C@@H](O)[C@H]2O)C=CC1 [NADPH],Vmax,[1],33.44 U/mg Protein
same,kcat,[1],1033.44
"C[C@H](CCC(=O)O)[C@H]1CC[C@H]2[C@@H]3[C@@H](O)C[C@@H]4C[C@H](O)CC[C@]4(C)[C@H]3CC[C@]12C [UDCA, Ursodeoxycholic acid]",kcat,[1],1179.39
"7β-HSDH [R64N]: 7β-HSDH mutant, R in position 64 replaced by N (protein, UniProt A4ECA9 1-263, looked up, variant R64N) 7beta-hydroxysteroid …: MNLREKYGEWGLILGATEGVGKAFCEKIAAGGMNVVMVGRREEKLNVLAGEIRETYGVETKVVNADFSQPGAAETVFAATEGLDMGFMSYVACLHSFGKIQDTPWEKHEAMINVNVVTFLKCFHHYMRIFAAQDRGAVINVSSMTGISSSPWNGQYGAGKAFILKMTEAVACECEGTGVDVEVITLGTTLTPSLLSNLPGGPQGEAVMKIALTPEECVDEAFEKLGKELSVIAGQRNKDSVHDWKANHTEDEYIRYMGSFYRD",Specific activity,[3]; [9],0.6 U/mg
same,Volumetric activity,[3]; [9],3.4 U/ml
"7β-HSDH [T17F]: 7β-HSDH mutant, threonine at position 17 replaced by F (protein, UniProt A4ECA9 1-263, looked up, variant T17F) 7beta-hydroxysteroid …: MNLREKYGEWGLILGAFEGVGKAFCEKIAAGGMNVVMVGRREEKLNVLAGEIRETYGVETKVVRADFSQPGAAETVFAATEGLDMGFMSYVACLHSFGKIQDTPWEKHEAMINVNVVTFLKCFHHYMRIFAAQDRGAVINVSSMTGISSSPWNGQYGAGKAFILKMTEAVACECEGTGVDVEVITLGTTLTPSLLSNLPGGPQGEAVMKIALTPEECVDEAFEKLGKELSVIAGQRNKDSVHDWKANHTEDEYIRYMGSFYRD",Specific activity,[3]; [10],46.1 U/mg
same,Volumetric activity,[3]; [10],645.2 U/ml
same,Cofactor specificity,[4],NADPH/low
"7β-HSDH [T17S]: 7β-HSDH mutant, threonine at position 17 replaced by S (protein, UniProt A4ECA9 1-263, looked up, variant T17S) 7beta-hydroxysteroid …: MNLREKYGEWGLILGASEGVGKAFCEKIAAGGMNVVMVGRREEKLNVLAGEIRETYGVETKVVRADFSQPGAAETVFAATEGLDMGFMSYVACLHSFGKIQDTPWEKHEAMINVNVVTFLKCFHHYMRIFAAQDRGAVINVSSMTGISSSPWNGQYGAGKAFILKMTEAVACECEGTGVDVEVITLGTTLTPSLLSNLPGGPQGEAVMKIALTPEECVDEAFEKLGKELSVIAGQRNKDSVHDWKANHTEDEYIRYMGSFYRD",Specific activity,[3]; [10],17.2 U/mg
same,Volumetric activity,[3]; [10],580 U/ml
"Collinsella aerofaciens 7β-HSDH mutant [R64E], with His tag, SEQ ID NO:4 (Collinsella aerofaciens ATCC 25986; R64E) (protein) MNLREKYGEWGLILGATEGVGKAFCEKIAAGGMNVVMVGRREEKLNVLAGEIRETYGVETKVVEADFSQPGAAETVFAATEGLDMGFMSYVACLHSFGKIQDTPWEKHEAMINVNVVTFLKCFHHYMRIFAAQDRGAVINVSSMTGISSSPWNGQYGAGKAFILKMTEAVACECEGTGVDVEVITLGTTLTPSLLSNLPGGPQGEAVMKIALTPEECVDEAFEKLGKELSVIAGQRNKDSVHDWKANHTEDEYIRYMGSFYRDLEHHHHHH",Km,[5],81.01 ± 18.9 µM
same,Vmax,[5],41.6 µmol/min/mg
same,Km,[6],45.48 ± 3.5 µM
same,Vmax,[6],60.3 µmol/min/mg
"7β-HSDH [G39S/R64E]: 7β-HSDH dual mutant, positions 39 ([G39S]) and 64 ([R64E]) modified at the same time; His tag, SEQ ID NO:6 (protein, His tag; 7-beta-HSDH G39S/R64E Mutant) MNLREKYGEWGLILGATEGVGKAFCEKIAAGGMNVVMVSRREEKLNVLAGEIRETYGVETKVVRADFSQPGAAETVFAATEGLDMGFMSYVACLHSFGKIQDTPWEKHEAMINVNVVTFLKCFHHYMRIFAAQDRGAVINVSSMTGISSSPWNGQYGAGKAFILKMTEAVACECEGTGVDVEVITLGTTLTPSLLSNLPGGPQGEAVMKIALTPEECVDEAFEKLGKELSVIAGQRNKDSVHDWKANHTEDEYIRYMGSFYRDLEHHHHHH",Specific activity,[3]; [11],57.5 U/mg
same,Volumetric activity,[3]; [11],1115.0 U/ml
same,Cofactor specificity,[4],NADPH
"Collinsella aerofaciens 7β-HSDH mutant [G39S], with His tag, SEQ ID NO:5 (Collinsella aerofaciens ATCC 25986; G39S) (protein) MNLREKYGEWGLILGATEGVGKAFCEKIAAGGMNVVMVSRREEKLNVLAGEIRETYGVETKVVRADFSQPGAAETVFAATEGLDMGFMSYVACLHSFGKIQDTPWEKHEAMINVNVVTFLKCFHHYMRIFAAQDRGAVINVSSMTGISSSPWNGQYGAGKAFILKMTEAVACECEGTGVDVEVITLGTTLTPSLLSNLPGGPQGEAVMKIALTPEECVDEAFEKLGKELSVIAGQRNKDSVHDWKANHTEDEYIRYMGSFYRDLEHHHHHH",Km,[5],352.4 ± 42.7 µM
same,Vmax,[5],52 µmol/min/mg
same,Km,[6],34.5 ± 6.6 µM
same,Vmax,[6],48.8 µmol/min/mg
"7β-HSDH [G39S]: 7β-HSDH mutant which contains serine instead of glycine at position 39; His tag, SEQ ID NO:5 (protein, His tag; 7-beta-HSDH G39S Mutant) MNLREKYGEWGLILGATEGVGKAFCEKIAAGGMNVVMVSRREEKLNVLAGEIRETYGVETKVVRADFSQPGAAETVFAATEGLDMGFMSYVACLHSFGKIQDTPWEKHEAMINVNVVTFLKCFHHYMRIFAAQDRGAVINVSSMTGISSSPWNGQYGAGKAFILKMTEAVACECEGTGVDVEVITLGTTLTPSLLSNLPGGPQGEAVMKIALTPEECVDEAFEKLGKELSVIAGQRNKDSVHDWKANHTEDEYIRYMGSFYRDLEHHHHHH",Volumetric activity,"[3]; text of example 3, position 39",735 U/ml
same,specific enzymatic activity,"[3]; text of example 3, position 39, per mg protein",52.9 U/mg
same,Cofactor specificity,[4],NADPH
"7β-HSDH [R64E]: 7β-HSDH mutant, arginine (R) in position 64 replaced by glutamic acid (E); His tag, SEQ ID NO:4 (protein, His tag; 7-beta-HSDH R64E Mutant) MNLREKYGEWGLILGATEGVGKAFCEKIAAGGMNVVMVGRREEKLNVLAGEIRETYGVETKVVEADFSQPGAAETVFAATEGLDMGFMSYVACLHSFGKIQDTPWEKHEAMINVNVVTFLKCFHHYMRIFAAQDRGAVINVSSMTGISSSPWNGQYGAGKAFILKMTEAVACECEGTGVDVEVITLGTTLTPSLLSNLPGGPQGEAVMKIALTPEECVDEAFEKLGKELSVIAGQRNKDSVHDWKANHTEDEYIRYMGSFYRDLEHHHHHH",Specific activity,[3]; [9],60.2 U/mg
same,Volumetric activity,[3]; [9],892.7 U/ml
same,activity compared with the wild-type enzyme,[3]; qualitative statement,increase in the specific activity
same,Cofactor specificity,[4],NADPH
"Collinsella aerofaciens 7β-HSDH (WT), with C-terminal His tag, SEQ ID NO:3 (Collinsella aerofaciens ATCC 25986) (protein) MNLREKYGEWGLILGATEGVGKAFCEKIAAGGMNVVMVGRREEKLNVLAGEIRETYGVETKVVRADFSQPGAAETVFAATEGLDMGFMSYVACLHSFGKIQDTPWEKHEAMINVNVVTFLKCFHHYMRIFAAQDRGAVINVSSMTGISSSPWNGQYGAGKAFILKMTEAVACECEGTGVDVEVITLGTTLTPSLLSNLPGGPQGEAVMKIALTPEECVDEAFEKLGKELSVIAGQRNKDSVHDWKANHTEDEYIRYMGSFYRDLEHHHHHH",Km,[7],20.5 ± 2.9 µM
same,Vmax,[7],8.7 µmol/min/mg
same,Km,[8],15.2 ± 2.2 µM
same,Vmax,[8],8.8 µmol/min/mg
"Collinsella aerofaciens 7β-HSDH dual mutant [G39S/R64E], with His tag, SEQ ID NO:6 (Collinsella aerofaciens ATCC 25986; G39S/R64E) (protein) MNLREKYGEWGLILGATEGVGKAFCEKIAAGGMNVVMVSRREEKLNVLAGEIRETYGVETKVVEADFSQPGAAETVFAATEGLDMGFMSYVACLHSFGKIQDTPWEKHEAMINVNVVTFLKCFHHYMRIFAAQDRGAVINVSSMTGISSSPWNGQYGAGKAFILKMTEAVACECEGTGVDVEVITLGTTLTPSLLSNLPGGPQGEAVMKIALTPEECVDEAFEKLGKELSVIAGQRNKDSVHDWKANHTEDEYIRYMGSFYRDLEHHHHHH",Km,[5],349.3 ± 5.23 µM
same,Vmax,[5],54.3 µmol/min/mg
same,Km,[6],76.6 ± 15.9 µM
same,Vmax,[6],75.5 µmol/min/mg
